Experimental findings from patent US20140315825A1 (GENEMEDICINE, published 2014) are described below.

This assay has as its target T1, soluble Wnt decoy receptor sLRP6E1E2 (FLAG-tagged E1 and E2 extracellular domains of LRP6) (Homo sapiens (Human), UniProt O75581 20-651).
T1 construct: Expressed in the assay cells from the adenoviral vector dE1-k35/sLRP6E1E2 and not added as purified protein; also called soluble LRP6 receptor; decoy Wnt receptor; not shown: FLAG tag
T1 sequence: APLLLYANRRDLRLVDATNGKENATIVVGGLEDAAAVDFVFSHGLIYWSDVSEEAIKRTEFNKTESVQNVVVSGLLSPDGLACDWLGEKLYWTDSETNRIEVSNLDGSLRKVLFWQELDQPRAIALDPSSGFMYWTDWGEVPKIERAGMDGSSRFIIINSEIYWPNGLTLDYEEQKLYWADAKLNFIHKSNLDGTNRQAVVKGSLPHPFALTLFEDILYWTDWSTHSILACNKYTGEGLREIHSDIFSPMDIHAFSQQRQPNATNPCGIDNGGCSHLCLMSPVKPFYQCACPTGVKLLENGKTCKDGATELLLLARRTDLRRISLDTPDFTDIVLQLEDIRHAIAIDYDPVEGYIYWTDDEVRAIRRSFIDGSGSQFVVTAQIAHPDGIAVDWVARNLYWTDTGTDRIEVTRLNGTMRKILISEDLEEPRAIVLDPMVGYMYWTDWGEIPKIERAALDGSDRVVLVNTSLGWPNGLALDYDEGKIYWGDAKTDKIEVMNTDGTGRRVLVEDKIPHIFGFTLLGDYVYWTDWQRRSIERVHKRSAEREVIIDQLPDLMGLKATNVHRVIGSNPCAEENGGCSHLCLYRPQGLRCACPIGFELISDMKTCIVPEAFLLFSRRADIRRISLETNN
Nature of the assay: immunoprecipitation of lysates of transduced H322 and H460 cells with anti-Wnt3a or anti-LRP6, then western blot. The procedure: FIG. 1 represents characterization of the decoy Wnt receptor sLRP6E1E2. FIG. 1a is schematic representation of the genomic structure of Ad vectors used. […] Cell culture supernatants were assessed with FLAG- or LRP6-specific Ab. (d) H322 and H460 cells were transduced with dE1-k35/LacZ or dE1-k35/sLRP6E1E2 (50 MOI) for 48 hr. Cell lysates were immunoprecipitated with antisera against Wnt3a (IP: Wnt3a) or LRP6 (IP: LRP6) followed by western blot (WB) analysis with the same antibodies.
Next, binding of sLRP6E1E2 to Wnt3a was assessed in cells transduced with dE1-k35/LacZ or dE1-k35/sLRP6E1E2. Cell lysates were immunoprecipitated with anti-Wnt3a or anti-LRP6 antibodies and analyzed by western blot.
A general note: A western blot detects proteins with antibodies after separation by electrophoresis.

B1: Wnt3a, endogenous in human non-small cell lung cancer cell lines H322 and H460 (ligand, UniProt P56704 19-352, looked up)
chain: SYPIWWSLAVGPQYSSLGSQPILCASIPGLVPKQLRFCRNYVEIMPSVAEGIKIGIQECQHQFRGRRWNCTTVHDSLAIFGPVLDKATRESAFVHAIASAGVAFAVTRSCAEGTAAICGCSSRHQGSPGKGWKWGGCSEDIEFGGMVSREFADARENRPDARSAMNRHNNEAGRQAIASHMHLKCKCHGLSGSCEVKTCWWSQPDFRAIGDFLKDKYDSASEMVVEKHRESRGWVETLRPRYTYFKVPTERDLVYYEASPNFCEPNPETGSFGTRDRTCNVSSHGIDGCDLLCCGRGHNARAERRREKCRCVFHWCCYVSCQECTRVYDVHTCK
notes: Present in cell lysates in the immunoprecipitation; also called Wnt 3a protein
With B1, the binding result is “binds”.
